Patent US7262177B2, “Conjugates of glycosylated/galactosylated peptide, bifunctional linker, and nucleotidic monomers/polymers, and related compositions and methods of use” (priority 2000, dated 2007)
Where two headings read alike, the source gives them in different places.

Key:
[1] = Serum stability of 35S labeled po 1-mer conjugate, PAGE analysis; assay type: in vitro ADME; conditions: human serum, 37° C.
Experimental: Studies were carried out at physiological conditions. The analyses were accomplished using reversed-phase HPLC and PAGE methods. The raw data are presented in table format (Tables 1, 2 and 3). The serum half-life calculated is t1/2=1/k (0.693), derived from the [A]=[A0]e^−kt, where [A0] is the original amount of substrate, [A] is the measured substrate level, t is time (min), and k is the first-order rate constant.
Reaction Conditions: 2 μl of human serum were added to 200,000 cpm of dry ^35S labeled po 1-mer conjugate. Radiolabeled conjugate was incubated at 37° C. in the presence of this serum for the allotted time periods (15 min, 30 min, 60 min, 120 min, 240 min). The reaction mixture was diluted with 2 μl of H2O, then 4 μl of loading buffer. The degradation pattern was observed through autoradiography of a 20% polyacylamide gel (0.75 mm) run at 800 V for 90 min. Bands were quantified through the use of a Fujix BAS 2000 Phosphorimager (Table 3).

[2] = Hepatic and systemic toxicity, 4 weekly bolus injections; assay type: in vivo, CD-1 mice
Experimental: Mice have previously been used as in vivo models for 5FU drug testing in the following manner (Ain et al., J. Surg. Res., 57, 366-372 (1994); Wang et al., Cancer Res., 50, 869s-872s (1990)). The plasma profiles, induced toxicities and pharmacokinetics of 5FU in mice are similar to those observed in humans (Wagner et al., Cancer Res., 46, 1499-1506 (1986)). Both po 1-mer and 5FdU were administered on a clinically relevant regimen of 4 weekly bolus injections via the tail vein (Anfield et al., Cancer, 39, 34-40 (1977)). The starting doses of 10 mg/kg and 15 mg/kg were determined by extrapolation of the in vitro data. One week after each injection, a cohort of animals (6 animals/dose/treatment) was sacrificed. Blood and liver samples were collected from each animal and assayed for hepatic and systemic toxicities. The blood sample analyses included a Superchem panel and a total blood count. The Superchem panel assayed blood levels of glucose, urea nitrogen (BUN), creatinine, total protein, albumin, both conjugated and unconjugated bilirubin, triglycerides, SGOT, SGPT, triglycerides, CPK, alkaline phosphatase, and peripheral blood differentials. Total blood counts were analyzed for hematocrit, as well as both red and white blood cell counts. Liver samples were subjected to histological analysis in order to determine changes in morphology, architecture and increase in necrotic tissue as compared to the controls. Any acute or sustained increases in blood counts or serum components indicative of organ damage in comparison with the untreated control was taken to be indicative of a toxic response. In addition, the weights of each cohort were recorded throughout the treatment period as an indication of their clinical condition.

[3] = 10 mg/kg weekly, WEEK 6 (treatment stopped for two weeks)
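Wherever % injected dose in LIVER is given: male CD-1 mice given radiolabeled test agent intravenously, organs removed at each time point and dissolved, radioactivity per organ measured by scintillation counting with efficiency correction.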

Compound: CC(=O)N[C@H]1[C@H](OCCCCCCNC(=O)CC[C@H](NC(=O)CC[C@H](NC(=O)[C@H](Cc2ccc(O)cc2)NC(=O)C2CCC(CN3C(=O)CC(SCCCCCCOP(=O)(O)OC[C@H]4O[C@@H](n5cc(F)c(=O)[nH]c5=O)C[C@@H]4O)C3=O)CC2)C(=O)NCCCCCCO[C@@H]2O[C@H](CO)[C@H](O)[C@H](O)[C@H]2NC(C)=O)C(=O)NCCCCCCO[C@@H]2O[C@H](CO)[C@H](O)[C@H](O)[C@H]2NC(C)=O)O[C@H](CO)[C@H](O)[C@@H]1O (stereo partly drawn) [po 1-mer, YEE(ahGalNAc)3-SMCC-poFU]
- Normalized Area ([1]; 0 min): 0
- Pixel Area ([1]; 0 min): 42.57
- Standardized Area ([1]; 0 min): 1
- Normalized Area ([1]; 15 min): 0.1486
- Pixel Area ([1]; 15 min): 57.43
- Standardized Area ([1]; 15 min): 0.8514
- Normalized Area ([1]; 30 min): 0.2404
- Pixel Area ([1]; 30 min): 66.61
- Standardized Area ([1]; 30 min): 0.7596
- Normalized Area ([1]; 60 min): 0.3435
- Pixel Area ([1]; 60 min): 76.92
- Standardized Area ([1]; 60 min): 0.6565
- Normalized Area ([1]; 120 min): 0.39
- Pixel Area ([1]; 120 min): 81.57
- Standardized Area ([1]; 120 min): 0.61
- Normalized Area ([1]; 240 min): 0.3756
- Pixel Area ([1]; 240 min): 80.13
- Standardized Area ([1]; 240 min): 0.6244
- % injected dose in LIVER (15 MIN after tail vein i.v.): Fifty-seven
- % injected dose in LIVER (60 MIN after tail vein i.v.): 25%
- % injected dose in LIVER (480 MIN after tail vein i.v.): virtually no
- histological analysis of liver ([2]; 10 mg/kg weekly): mild hepatocellular swelling
- increased total bilirubin and gamma-glutamyl transferase (GT) levels ([2]; 10 mg/kg weekly): not observed
- lactate dehydrogenase levels ([2]; 10 mg/kg weekly): increased
- BUN ([2]; 10 mg/kg weekly, WEEK 1): 24.66 mg/dL
- Calcium ([2]; 10 mg/kg weekly, WEEK 1): 7.56 mg/dL
- Chloride ([2]; 10 mg/kg weekly, WEEK 1): 106.33 meq/l
- MCH ([2]; 10 mg/kg weekly, WEEK 1): 17.2 pg
- MCV ([2]; 10 mg/kg weekly, WEEK 1): 51.5 fL
- Potassium ([2]; 10 mg/kg weekly, WEEK 1): 11.63 meq/l
- SGOT ([2]; 10 mg/kg weekly, WEEK 1): 335.5 u/l
- SGPT ([2]; 10 mg/kg weekly, WEEK 1): 46.5 u/l
- Sodium ([2]; 10 mg/kg weekly, WEEK 1): 155.6 meq/l
- WBC ([2]; 10 mg/kg weekly, WEEK 1): 4.86 thds/cmm
- BUN ([2]; 10 mg/kg weekly, WEEK 2): 18 mg/dL
- Calcium ([2]; 10 mg/kg weekly, WEEK 2): 7.75 mg/dL
- Chloride ([2]; 10 mg/kg weekly, WEEK 2): 95 meq/l
- MCH ([2]; 10 mg/kg weekly, WEEK 2): 15.6 pg
- MCV ([2]; 10 mg/kg weekly, WEEK 2): 51 fL
- Potassium ([2]; 10 mg/kg weekly, WEEK 2): 11.1 meq/l
- SGOT ([2]; 10 mg/kg weekly, WEEK 2): 911.33 u/l
- SGPT ([2]; 10 mg/kg weekly, WEEK 2): 110 u/l
- Sodium ([2]; 10 mg/kg weekly, WEEK 2): 142.5 meq/l
- WBC ([2]; 10 mg/kg weekly, WEEK 2): 3.16 thds/cmm
- BUN ([2]; 10 mg/kg weekly, WEEK 3): 22 mg/dL
- Calcium ([2]; 10 mg/kg weekly, WEEK 3): 8.85 mg/dL
- Chloride ([2]; 10 mg/kg weekly, WEEK 3): 87.5 meq/l
- MCH ([2]; 10 mg/kg weekly, WEEK 3): 16.56 pg
- MCV ([2]; 10 mg/kg weekly, WEEK 3): 56 fL
- Potassium ([2]; 10 mg/kg weekly, WEEK 3): 8.9 meq/l
- SGOT ([2]; 10 mg/kg weekly, WEEK 3): 1174 u/l
- SGPT ([2]; 10 mg/kg weekly, WEEK 3): 177 u/l
- Sodium ([2]; 10 mg/kg weekly, WEEK 3): 152.5 meq/l
- WBC ([2]; 10 mg/kg weekly, WEEK 3): 2.8 thds/cmm
- BUN ([2]; 10 mg/kg weekly, WEEK 4): 21.33 mg/dL
- Calcium ([2]; 10 mg/kg weekly, WEEK 4): 6.5 mg/dL
- Chloride ([2]; 10 mg/kg weekly, WEEK 4): 86.66 meq/l
- MCH ([2]; 10 mg/kg weekly, WEEK 4): 16.42 pg
- MCV ([2]; 10 mg/kg weekly, WEEK 4): 52.83 fL
- Potassium ([2]; 10 mg/kg weekly, WEEK 4): 12.46 meq/l
- SGOT ([2]; 10 mg/kg weekly, WEEK 4): 1549.5 u/l
- SGPT ([2]; 10 mg/kg weekly, WEEK 4): 125.66 u/l
- Sodium ([2]; 10 mg/kg weekly, WEEK 4): 161.6 meq/l
- WBC ([2]; 10 mg/kg weekly, WEEK 4): 1.83 thds/cmm
- BUN [2, 3]: 22.44 mg/dL
- Calcium [2, 3]: 7.7 mg/dL
- Chloride [2, 3]: 89.72 meq/l
- MCH [2, 3]: 16.1 pg
- MCV [2, 3]: 51.18 fL
- Potassium [2, 3]: 10.82 meq/l
- SGOT [2, 3]: 1211.61 u/l
- SGPT [2, 3]: 137.55 u/l
- Sodium [2, 3]: 162.22 meq/l
- WBC [2, 3]: 3.03 thds/cmm
- weight gain ([2]; 10 mg/kg weekly, four week period): progressive and similar to the saline-treated control mice
- complete blood count: platelets ([2]; 15 mg/kg weekly): mild thrombocytopenia
- histological analysis of liver ([2]; 15 mg/kg weekly): mild hepatocellular swelling and limited subcapsular fibrosis in one mouse
- increased total bilirubin and gamma-GT levels ([2]; 15 mg/kg weekly): not observed
- lactate dehydrogenase levels ([2]; 15 mg/kg weekly): increased
- weight gain ([2]; 15 mg/kg weekly): somewhat less than the untreated control mice
- BUN ([2]; 15 mg/kg weekly, WEEK 1): 26 mg/dL
- Calcium ([2]; 15 mg/kg weekly, WEEK 1): 9.15 mg/dL
- Chloride ([2]; 15 mg/kg weekly, WEEK 1): 101.33 meq/l
- MCH ([2]; 15 mg/kg weekly, WEEK 1): 16.83 pg
- MCV ([2]; 15 mg/kg weekly, WEEK 1): 50 fL
- Potassium ([2]; 15 mg/kg weekly, WEEK 1): 8.9 meq/l
- SGOT ([2]; 15 mg/kg weekly, WEEK 1): 730 u/l
- SGPT ([2]; 15 mg/kg weekly, WEEK 1): 67.5 u/l
- Sodium ([2]; 15 mg/kg weekly, WEEK 1): 154.5 meq/l
- WBC ([2]; 15 mg/kg weekly, WEEK 1): 2 thds/cmm
- BUN ([2]; 15 mg/kg weekly, WEEK 3): 22 mg/dL
- Calcium ([2]; 15 mg/kg weekly, WEEK 3): 7.73 mg/dL
- Chloride ([2]; 15 mg/kg weekly, WEEK 3): 87.5 meq/l
- MCH ([2]; 15 mg/kg weekly, WEEK 3): 16.56 pg
- MCV ([2]; 15 mg/kg weekly, WEEK 3): 56.556 fL
- Potassium ([2]; 15 mg/kg weekly, WEEK 3): 8.7 meq/l
- SGOT ([2]; 15 mg/kg weekly, WEEK 3): 1194 u/l
- SGPT ([2]; 15 mg/kg weekly, WEEK 3): 120.3 u/l
- Sodium ([2]; 15 mg/kg weekly, WEEK 3): 156.5 meq/l
- WBC ([2]; 15 mg/kg weekly, WEEK 3): 2.1 thds/cmm
- BUN ([2]; 15 mg/kg weekly, WEEK 4): 20.33 mg/dL
- Calcium ([2]; 15 mg/kg weekly, WEEK 4): 6.7 mg/dL
- Chloride ([2]; 15 mg/kg weekly, WEEK 4): 81.66 meq/l
- MCH ([2]; 15 mg/kg weekly, WEEK 4): 14.2 pg
- MCV ([2]; 15 mg/kg weekly, WEEK 4): 51 fL
- Potassium ([2]; 15 mg/kg weekly, WEEK 4): 13.46 meq/l
- SGOT ([2]; 15 mg/kg weekly, WEEK 4): 1669.5 u/l
- SGPT ([2]; 15 mg/kg weekly, WEEK 4): 123.66 u/l
- Sodium ([2]; 15 mg/kg weekly, WEEK 4): 165.6 meq/l
- WBC ([2]; 15 mg/kg weekly, WEEK 4): 1.85 thds/cmm
- overall toxicity ([2]; 10 and 15 mg/kg weekly): mild at best
